We go through one molecule from patent US20220064275A1 (SCHOLAR ROCK, published 2022).

Where two headings read alike, the source gives them in different places.

Test [1] concerns the target T1, cynomolgus LTBP1-proTGFβ1 complex (cynomolgus monkey).
T1 construct: also called Cyno LTBP1-proTGFβ1
Nature of the test: MSD-SET, solution equilibrium titration. The procedure:
(§1) MSD-SET assays were performed to measure affinities of the antibodies at equilibrium. Briefly, each test antibody was diluted 3-5 fold and samples were mixed with biotinylated antigen in a 48-well dish. The SET samples were equilibrated for 20-24 hours at room temperature. Meanwhile, a capture plate was coated with IgG (20 nM) and incubated overnight at 4° C. or 30 minutes at room temperature, followed by a blocking step with 5% BSA. After the capture plate was washed three times, SET samples were added and incubated for 150 seconds. The plate was washed once to remove unbound complexes. 250 ng/ml SA-Sulfotag was added then washed 3 times. 2× Read Buffer was added, and signals from the labeled bound complexes were read with the use of QuickPlex™ SQ 120 instrument.
(§2) As an example, MSD standard plates (MSD) were coated with a 20 nM solution of monoclonal antibody in PBS for 30 min at room temperature or overnight at 4° C. […] After 20-24 hours of equilibration, the antibody-coated plate was blocked with Blocking Buffer A (MSD) for 30 minutes at room temperature and washed with wash buffer (PBS, 0.1% BSA, 0.05% Tween-20) before adding the equilibrated antibody-antigen complexes to the plate for exactly 2.5 minutes. The plate was washed again with wash buffer before adding 250 ng/ml SULFO-TAG-labeled streptavidin secondary reagent (MSD) in PBS with 0.1% BSA. After washing with wash buffer, plates were read in MSD read buffer (MSD) using the MESO QuickPlex SQ 120 (MSD). The binding data were processed by nonlinear curve fitting in Prism 7 software (Graphpad) to calculate equilibrium binding KD values.

The target in test [2] is T2, murine LTBP1-proTGFβ1 complex (mouse, UniProt Q8CG19 339-1712; P04202 30-390, limits assumed).
T2 construct: also called mLTBP1-proTGFβ1
T2 sequence (Q8CG19 339-1712 limits assumed, chain 1 of 2): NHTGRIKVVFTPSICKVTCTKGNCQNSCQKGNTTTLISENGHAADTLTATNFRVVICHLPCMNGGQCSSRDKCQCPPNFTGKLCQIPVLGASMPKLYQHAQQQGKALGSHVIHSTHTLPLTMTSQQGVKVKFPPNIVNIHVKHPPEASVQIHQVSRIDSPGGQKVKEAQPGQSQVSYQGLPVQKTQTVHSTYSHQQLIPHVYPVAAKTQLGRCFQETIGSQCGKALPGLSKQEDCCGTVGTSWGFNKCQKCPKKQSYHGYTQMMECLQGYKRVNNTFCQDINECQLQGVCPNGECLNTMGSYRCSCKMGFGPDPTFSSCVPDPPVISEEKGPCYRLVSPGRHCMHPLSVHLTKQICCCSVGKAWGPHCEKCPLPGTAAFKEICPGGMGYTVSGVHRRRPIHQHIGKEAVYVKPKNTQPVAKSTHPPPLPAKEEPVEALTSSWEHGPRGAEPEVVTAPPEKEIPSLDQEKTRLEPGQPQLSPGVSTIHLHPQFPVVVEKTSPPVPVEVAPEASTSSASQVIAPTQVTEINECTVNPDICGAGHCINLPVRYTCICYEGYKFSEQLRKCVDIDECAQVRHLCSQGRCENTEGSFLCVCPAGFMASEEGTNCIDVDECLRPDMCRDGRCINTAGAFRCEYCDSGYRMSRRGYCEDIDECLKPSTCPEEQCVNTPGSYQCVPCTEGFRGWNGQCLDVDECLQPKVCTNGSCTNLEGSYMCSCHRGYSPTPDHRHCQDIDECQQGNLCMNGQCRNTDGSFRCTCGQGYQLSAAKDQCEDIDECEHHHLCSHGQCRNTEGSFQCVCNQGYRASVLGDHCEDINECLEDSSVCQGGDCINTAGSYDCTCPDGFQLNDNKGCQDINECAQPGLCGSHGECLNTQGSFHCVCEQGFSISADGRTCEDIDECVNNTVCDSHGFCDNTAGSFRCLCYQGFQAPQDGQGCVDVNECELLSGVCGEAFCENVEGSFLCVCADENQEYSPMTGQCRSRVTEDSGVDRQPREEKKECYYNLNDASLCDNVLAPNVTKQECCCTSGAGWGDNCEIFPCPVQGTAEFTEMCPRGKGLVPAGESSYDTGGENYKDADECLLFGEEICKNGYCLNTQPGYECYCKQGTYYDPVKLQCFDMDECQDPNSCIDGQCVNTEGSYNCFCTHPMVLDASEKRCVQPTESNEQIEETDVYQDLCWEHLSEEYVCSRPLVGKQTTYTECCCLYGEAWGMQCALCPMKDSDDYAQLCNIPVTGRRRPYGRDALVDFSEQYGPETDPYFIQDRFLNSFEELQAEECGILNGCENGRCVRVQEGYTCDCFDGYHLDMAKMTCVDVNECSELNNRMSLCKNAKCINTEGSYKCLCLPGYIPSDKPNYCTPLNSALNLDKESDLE
T2 sequence (P04202 30-390 limits assumed, chain 2 of 2): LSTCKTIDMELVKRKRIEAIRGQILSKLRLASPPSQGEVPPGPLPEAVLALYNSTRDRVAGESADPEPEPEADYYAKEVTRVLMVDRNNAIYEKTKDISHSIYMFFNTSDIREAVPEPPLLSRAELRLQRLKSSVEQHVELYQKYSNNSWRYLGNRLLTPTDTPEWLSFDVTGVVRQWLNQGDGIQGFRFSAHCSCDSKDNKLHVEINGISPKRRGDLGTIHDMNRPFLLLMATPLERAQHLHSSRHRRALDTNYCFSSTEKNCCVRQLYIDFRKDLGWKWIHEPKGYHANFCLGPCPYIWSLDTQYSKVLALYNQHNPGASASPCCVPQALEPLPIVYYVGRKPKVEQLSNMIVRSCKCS
Nature of the test: MSD-SET, solution equilibrium titration. The procedure:
as §1, §2

Test [3] has as its target T3, human LTBP1-proTGFβ1 complex (human, UniProt Q14766 873-1507).
T3 construct: range 873-1507; biotinylated in Octet and MSD-SET; also called hLTBP1-proTGFβ1; hLTBP1
Nature of the test: MSD-SET, solution equilibrium titration. On the procedure: as §1, §2

Test [4] concerns the target T4, murine LRRC33-proTGFβ1 complex (mouse, UniProt Q8BMT4 20-651, limits assumed).
T4 construct: also called mLRRC33-proTGFβ1
Description: MSD-SET, solution equilibrium titration. On the procedure: as §1, §2

For test [5], the target named is T5, human LTBP3-proTGFβ1 complex (human, UniProt Q9NS15 866-1039).
T5 construct: range 866-1039; also called hLTBP3-proTGFβ1; hLTBP3
T5 sequence (Q9NS15 866-1039 limits assumed, chain 1 of 2): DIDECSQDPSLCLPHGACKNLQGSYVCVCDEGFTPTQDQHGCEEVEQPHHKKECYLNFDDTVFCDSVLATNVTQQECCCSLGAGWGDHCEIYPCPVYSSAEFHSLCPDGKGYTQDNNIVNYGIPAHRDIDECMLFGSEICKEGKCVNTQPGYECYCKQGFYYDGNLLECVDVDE
T5 sequence (chain, as listed by the source limits assumed, chain 2 of 2): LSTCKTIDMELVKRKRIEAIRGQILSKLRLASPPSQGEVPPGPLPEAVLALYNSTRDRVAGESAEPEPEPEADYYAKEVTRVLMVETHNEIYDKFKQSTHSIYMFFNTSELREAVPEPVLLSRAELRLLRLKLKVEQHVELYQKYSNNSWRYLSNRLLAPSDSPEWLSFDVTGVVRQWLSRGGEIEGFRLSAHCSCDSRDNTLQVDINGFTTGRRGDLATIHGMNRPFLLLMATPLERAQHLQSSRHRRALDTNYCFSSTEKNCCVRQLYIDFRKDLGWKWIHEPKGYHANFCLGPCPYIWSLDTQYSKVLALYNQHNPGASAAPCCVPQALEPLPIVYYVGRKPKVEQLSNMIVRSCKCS
Nature of the test: MSD-SET, solution equilibrium titration. On the procedure: as §1, §2

In test [6] the target is T6, murine GARP-proTGFβ1 complex (mouse, UniProt G3XA59 18-628; P04202 30-390).
T6 construct: Soluble murine complex; also called mGARP-proTGFβ1
T6 sequence (G3XA59 18-628, chain 1 of 2): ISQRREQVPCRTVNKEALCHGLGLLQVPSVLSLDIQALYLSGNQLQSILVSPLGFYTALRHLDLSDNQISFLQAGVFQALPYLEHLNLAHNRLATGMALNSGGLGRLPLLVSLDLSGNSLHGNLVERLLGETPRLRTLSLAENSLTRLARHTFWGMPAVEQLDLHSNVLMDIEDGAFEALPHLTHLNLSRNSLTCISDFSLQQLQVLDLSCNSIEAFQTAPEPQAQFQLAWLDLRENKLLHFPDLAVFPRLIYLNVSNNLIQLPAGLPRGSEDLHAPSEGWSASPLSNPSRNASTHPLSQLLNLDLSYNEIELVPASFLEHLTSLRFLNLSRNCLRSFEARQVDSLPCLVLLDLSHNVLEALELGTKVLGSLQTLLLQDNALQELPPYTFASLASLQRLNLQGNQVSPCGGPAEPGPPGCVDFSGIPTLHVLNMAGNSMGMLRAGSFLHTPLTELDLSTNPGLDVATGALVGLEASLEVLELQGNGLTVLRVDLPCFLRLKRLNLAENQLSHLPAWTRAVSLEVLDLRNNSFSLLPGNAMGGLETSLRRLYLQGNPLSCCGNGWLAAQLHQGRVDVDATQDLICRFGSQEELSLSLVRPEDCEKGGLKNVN
T6 sequence (P04202 30-390, chain 2 of 2): as the sequence (P04202 30-390 limits assumed, chain 2 of 2) above
Nature of the test: MSD-SET, solution equilibrium titration. The procedure:
as §1, §2

Test [7] deals with T7, human GARP-proTGFβ1 complex (human, UniProt Q14392 20-627; P01137 30-390).
T7 construct: also called hGARP-proTGFβ1; hGARP
T7 sequence (Q14392 20-627, chain 1 of 2): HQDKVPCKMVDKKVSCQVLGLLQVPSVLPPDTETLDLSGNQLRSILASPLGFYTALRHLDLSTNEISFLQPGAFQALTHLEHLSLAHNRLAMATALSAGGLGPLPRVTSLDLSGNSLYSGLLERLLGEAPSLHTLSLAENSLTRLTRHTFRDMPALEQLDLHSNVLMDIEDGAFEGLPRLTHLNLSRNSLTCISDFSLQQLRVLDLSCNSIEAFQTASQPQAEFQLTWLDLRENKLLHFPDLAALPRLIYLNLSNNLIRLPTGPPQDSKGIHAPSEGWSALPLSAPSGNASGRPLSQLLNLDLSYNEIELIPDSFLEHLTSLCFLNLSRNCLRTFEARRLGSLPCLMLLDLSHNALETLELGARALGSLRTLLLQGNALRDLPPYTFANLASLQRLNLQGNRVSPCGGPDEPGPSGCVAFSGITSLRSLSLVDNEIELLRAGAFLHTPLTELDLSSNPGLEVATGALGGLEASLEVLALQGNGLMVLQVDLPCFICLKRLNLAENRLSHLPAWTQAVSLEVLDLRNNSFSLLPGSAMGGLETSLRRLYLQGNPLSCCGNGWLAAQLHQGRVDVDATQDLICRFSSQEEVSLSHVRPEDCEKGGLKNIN
Nature of the test: MSD-SET, solution equilibrium titration. The procedure:
as §1, §2

Test [8] deals with rat LRRC33-proTGFβ1 complex (rat, UniProt Q5BK65 25-650; P17246 30-390). Description: MSD-SET, solution equilibrium titration. The procedure: as §1, §2
Test [9] has as its target T8, human LRRC33-proTGFβ1 complex (human, UniProt Q86YC3 19-650; P01137 30-390).
T8 construct: also called hLRRC33-proTGFβ1; hLRRC33
Nature of the test: MSD-SET, solution equilibrium titration. The procedure:
as §1, §2

Test [10] addresses rat LTBP1-proTGFβ1 complex (rat, UniProt Q00918 339-1712; P17246 30-390). Description: MSD-SET, solution equilibrium titration. The procedure:
as §1, §2

Test [11] has as its target T9, cynomolgus LRRC33-proTGFβ1 complex (cynomolgus monkey, UniProt A0A7N9CII2 32-663).
T9 construct: also called Cyno LRRC33-proTGFβ1
Description: MSD-SET, solution equilibrium titration. On the procedure:
as §1, §2

Test [12] deals with T7, human GARP-proTGFβ1 complex. Nature of the test: MSD-SET solution equilibrium titration; Ab6 titrated against biotinylated hGARP-proTGFβ1, readout % free antigen. The procedure:
as §1
As an example, MSD standard plates (MSD) were coated with a 20 nM solution of monoclonal antibody in PBS for 30 min at room temperature or overnight at 4° C. […] After 20-24 hours of equilibration, the antibody-coated plate was blocked with Blocking Buffer A (MSD) for 30 minutes at room temperature and washed with wash buffer (PBS, 0.1% BSA, 0.05% Tween-20) before adding the equilibrated antibody-antigen complexes to the plate for exactly 2.5 minutes. […] After washing with wash buffer, plates were read in MSD read buffer (MSD) using the MESO QuickPlex SQ 120 (MSD). […]

Test [13] deals with T2, murine LTBP1-proTGFβ1 complex. Description: MSD-SET, solution equilibrium titration. On the procedure: as §1, §2
This is another data set of the same source.

In test [14] the target is T3, human LTBP1-proTGFβ1 complex. Description: MSD-SET, solution equilibrium titration. The procedure:
as §1, §2
This is another data set of the same source.

Test [15] has as its target T4, murine LRRC33-proTGFβ1 complex. Nature of the test: MSD-SET, solution equilibrium titration. On the procedure: as §1, §2
This is another data set of the same source.

Test [16] addresses T5, human LTBP3-proTGFβ1 complex. Description: MSD-SET, solution equilibrium titration. The procedure:
as §1, §2
This is another data set of the same source.

The target of test [17] is T6, murine GARP-proTGFβ1 complex. Nature of the test: MSD-SET, solution equilibrium titration. The procedure: as §1, §2
The source holds these as a separate data set.

The target in test [18] is T10, murine LTBP3-proTGFβ1 complex (mouse, UniProt Q61810 41-1245; P04202 30-390, limits assumed).
T10 construct: also called mLTBP3-proTGFβ1
Description: MSD-SET, solution equilibrium titration. On the procedure:
as §1, §2

The target in test [19] is T7, human GARP-proTGFβ1 complex. Description: MSD-SET, solution equilibrium titration. The procedure: as §1, §2
This is another data set of the same source.

Test [20] addresses T8, human LRRC33-proTGFβ1 complex. Nature of the test: MSD-SET, solution equilibrium titration. On the procedure:
as §1, §2
The source holds these as a separate data set.

Test [21] concerns the target T3, human LTBP1-proTGFβ1 complex. Nature of the test: BLI (Octet). (In general: BLI is a label-free optical method that tracks binding on a fibre tip over time.)
Test [22] has as its target T5, human LTBP3-proTGFβ1 complex. Nature of the test: BLI (Octet).
Test [23] addresses T7, human GARP-proTGFβ1 complex. Nature of the test: BLI (Octet).

T3 sequence (Q14766 873-1507 limits assumed, chain 1 of 2): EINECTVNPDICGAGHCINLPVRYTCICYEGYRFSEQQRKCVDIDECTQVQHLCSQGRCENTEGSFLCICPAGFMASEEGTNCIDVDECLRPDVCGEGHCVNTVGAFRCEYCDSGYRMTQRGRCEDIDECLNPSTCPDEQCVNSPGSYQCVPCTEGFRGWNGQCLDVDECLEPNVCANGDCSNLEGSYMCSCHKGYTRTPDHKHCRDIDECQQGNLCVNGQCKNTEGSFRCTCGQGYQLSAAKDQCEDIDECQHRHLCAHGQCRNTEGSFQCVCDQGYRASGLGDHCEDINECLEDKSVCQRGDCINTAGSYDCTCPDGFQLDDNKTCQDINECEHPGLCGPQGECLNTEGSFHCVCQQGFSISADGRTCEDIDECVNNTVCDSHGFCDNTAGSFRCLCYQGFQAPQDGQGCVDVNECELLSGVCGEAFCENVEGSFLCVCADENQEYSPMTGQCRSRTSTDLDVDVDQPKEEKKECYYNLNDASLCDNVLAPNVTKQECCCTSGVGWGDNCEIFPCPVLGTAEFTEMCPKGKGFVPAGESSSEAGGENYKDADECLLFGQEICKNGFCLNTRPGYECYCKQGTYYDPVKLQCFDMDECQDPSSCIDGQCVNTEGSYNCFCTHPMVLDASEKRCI
T4 sequence (Q8BMT4 20-651 limits assumed, chain 1 of 2): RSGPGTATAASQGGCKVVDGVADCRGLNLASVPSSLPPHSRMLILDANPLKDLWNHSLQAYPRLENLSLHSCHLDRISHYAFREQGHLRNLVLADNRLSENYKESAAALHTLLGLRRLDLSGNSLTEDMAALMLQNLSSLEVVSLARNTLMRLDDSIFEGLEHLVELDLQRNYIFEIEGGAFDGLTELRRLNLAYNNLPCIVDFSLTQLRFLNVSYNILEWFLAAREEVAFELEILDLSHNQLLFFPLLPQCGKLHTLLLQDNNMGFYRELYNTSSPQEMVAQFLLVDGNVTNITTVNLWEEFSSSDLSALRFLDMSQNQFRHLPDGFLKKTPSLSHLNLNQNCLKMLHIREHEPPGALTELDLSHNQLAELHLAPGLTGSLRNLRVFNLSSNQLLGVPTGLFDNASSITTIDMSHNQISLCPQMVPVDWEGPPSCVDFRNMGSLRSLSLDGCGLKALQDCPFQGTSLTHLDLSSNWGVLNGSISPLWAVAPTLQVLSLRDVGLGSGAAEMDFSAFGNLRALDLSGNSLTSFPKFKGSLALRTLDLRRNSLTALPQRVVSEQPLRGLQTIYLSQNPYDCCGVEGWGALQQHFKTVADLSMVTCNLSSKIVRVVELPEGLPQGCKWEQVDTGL
T4 sequence (chain, as listed by the source limits assumed, chain 2 of 2): as the sequence (P04202 30-390 limits assumed, chain 2 of 2) above

B1: Ab6 (antibody, human IgG4 S228P, kappa, V domains shown)
VH: EVQLVESGGGLVQPGGSLRLSCTASGFTFSSFSMDWVRQAPGKGLEWVSYISPSADTIYYADSVKGRFTISRDNAKNTLYLQMNSLRAEDTAVYYCARGVLDYGDMLMPWGQGTLVTVSS
VL: DIQMTQSPSSLSASVGDRVTITCQASQDITNYLNWYQQKPGKAPKLLIYDASNLETGVPSRFSGSGSGTDFTFTISSLQPEDIATYYCQQADNHPPWTFGGGTKVEIKR
A word on the Kd: it is the equilibrium constant for the complex coming apart. In the case of B1, the Kd in [1] came to 0.039 nM; in test [2], 0.024 nM; in test [3] it was 0.018 nM; in test [4], 0.048 nM; in test [5], 0.029 nM; in test [6], 0.021 nM. In addition, the Kd came out at 0.027 nM in test [7]; 0.086 nM in test [8]; 0.063 nM in [9]; 0.035 nM in test [10]; 0.093 nM in [11]; 0.024 nM in test [13]. For the same molecule, the Kd in test [14] is 0.018 nM; in [15] it was 0.048 nM; in test [16] it was 0.029 nM; in [17], 0.021 nM; in test [18] it was 0.028 nM; in [19], 0.027 nM. For the same molecule, the Kd in test [20] worked out at 0.063 nM; in [21], 0.207 nM; in test [22], 0.123 nM; in test [23] it was 0.404 nM. The “IC50 (read off the curve)” value in test [12] is roughly 0.03 nM.
